The Human Domainome abundance scans (Beltran et al. 2025)

B1: Friend leukemia integration 1 transcription factor, residues 116 to 197; numbered along this chain, Q01543 (parent)
chain: NMTTNERRVIVPADPTLWTQEHVRQWLEWAIKEYSLMEIDTSFFQNMDGKELCKMNKEDFLRATTLYNTEVLLSHLSYLRES

Variants of: B1
Experiment: abundance fitness (aPCA) (normalised: wild type 0, dead -1); higher = more abundant; growth selection in yeast, the domain comes from the species named
Conditions: Homo sapiens

Abundance fitness: each site, then its substitutions
F60: M -0.277, W -0.114, G -1.1, K -0.801, A -0.75, T -0.918, Y 0.152, S -0.881, V -0.433, P -0.921, L -0.116, R -1, C -0.545, Q -0.938
Y67: G 0.017, K -0.045, A -0.051, C -0.058, N -0.014, T -0.006, L -0.125, D -0.027, Q 0.059, R 0.079, F -0.219, M -0.111, P -0.008, H 0.085, W -0.153, V 0.064, E 0.212, S 0.074
A63: L 0.022, E -0.213, V 0.003, G 0.018, T -0.106, K -0.089, N 0.36, W 0.002, F -0.123, Y 0.085, M 0.024, R -0.041, H -0.161, D 0.012, P -0.954
T65: R -0.372, D -0.162, S -0.011, C -0.028, H -0.283, A -0.424, I -0.908, V -0.966, G -0.058, W -1.03, K -0.47, F -1.09, L -0.615, P -0.085, Q -0.235, N -0.042
D59: P -0.882, Q -0.087, I -0.607, F -0.144, M -0.17, E -0.184, Y -0.045, V -0.211, R -0.327, W -0.106, S -0.126, K -0.052, G -0.058, H -0.177, T -0.189
T69: Y -0.295, C -0.214, M -0.444, A 0.084, L -0.561, S -0.028, G -0.184, K -0.816, F -0.799, E -0.673, Q -0.744
L66: H 0.008, T -0.089, C -0.039, S 0.013, Q -0.066, E 0.016, G -0.108, Y -0.036, K -0.038, F -0.574, W 0.009, P -0.015, V 0.045, I 0.085, A -0.021
R62: A -0.159, G -0.016, T -0.117, S 0.017, Q 0.071, N -0.021, P -0.213, I -0.728, C -0.23, H -0.073, K 0.087, W -0.325, F -0.327, L 0.007, D -0.4, E -0.01, V 0.066
T64: I -0.793, S -0.613, E -0.792, R -0.807, K -0.796, Q -0.1, M -0.02, W -0.537, N -0.531, P -0.704, A -0.404, C -0.505, G -0.126, L -0.262
N68: D 0.156, E -0.022, L -0.859, T -0.146, C -0.292, K -0.898, W -0.911, F -1.02, A -0.233, G -0.125, Y -0.797, V -0.376, S -0.083, R -0.547, Q -0.167
L61: W -0.04, M -0.123, G -0.236, N -0.371, H -0.36, C -0.396, K -0.335, F -0.307, T -0.025, E -0.16, P -1.07, A -0.13, I -0.268, S -0.105, D -0.449, Q 0.009, V -0.13
